Reference: the supplement of paper PMC9732359
± gives the uncertainty stated by the source.

Assay: protein stability index of a GFP-peptide fusion (yeast GPS) (PSI 1-4); higher = more stable; sorted into four equal gates, so the index is relative within each strain
Summary of the method: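 Peptides tiling yeast proteins in 17-residue segments were fused downstream of GFP, with Cherry expressed from the same plasmid. As a pooled library in yeast, mid-log cultures grown in leucine-free medium were sorted into four equal gates by GFP/Cherry fluorescence ratio. Gate plasmids were PCR-amplified and Illumina-sequenced, and barcodes linked reads to strains. Each peptide received a protein stability index equal to the sum of each gate's read frequency times its gate number.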

Sequence	protein stability index (doa10∆)	protein stability index (pdr5∆)	protein stability index (san1∆)	protein stability index (ubr1∆)
DGTAQLSNNKTDEEEQL [YJR042W/NUP85]	2.77 ± 0.25	3.16 ± 0.14	3.27 ± 0.15	3.18 ± 0.098
YDNIDIQRGRILPTDGS [RPB7]	3.05 ± 0.28	3.06 ± 0.18		2.94 ± 0.24
HILFQNNPDMMIQPPQQ [ROX3]	2.94 ± 0.062	2.96 ± 0.07	3.06 ± 0.066	3.02 ± 0.046
IALNLASKKFGKICLIL [SSN2]	2.41 ± 0.11	2.83 ± 0.062	2.9 ± 0.071	3.12 ± 0.061
FDNVASVFMPLIFIACN [ECM29]	2.9 ± 0.048	2.72 ± 0.038	2.57 ± 0.045	2.71 ± 0.032
EGLNQRNQVQTENVAQA [YGR119C/NUP57]	2.96 ± 0.12	2.89 ± 0.16	2.77 ± 0.095	2.65 ± 0.06
ESDLYKLKECPFDMGGY [RPB2]	3.13 ± 0.076	3.25 ± 0.087	3.22 ± 0.068	3.34 ± 0.036
LNSYHIKNGRIYFTVPN [RGR1]	2.57 ± 0.054	2.21 ± 0.035	2.19 ± 0.056	2.33 ± 0.037
LLPTIKRTICKKCHRLL [RPR2]	2.32 ± 0.065	2.36 ± 0.054	2.26 ± 0.11	2.34 ± 0.034
AELIPELYSFQQLVDSE [SNF12]	1.79 ± 0.08	2.12 ± 0.067	2.67 ± 0.057	1.87 ± 0.047
SRGLFEKKLMQDNKQLY [YDL116W/NUP84]	2.75 ± 0.067	3.06 ± 0.09	3.11 ± 0.078	2.93 ± 0.1
VAARMFHILLKLILEWV [ECM29]	1.42 ± 0.17	1.64 ± 0.12	1.91 ± 0.12	2.1 ± 0.094
APQVYIITKNENFLKEV [GAL11]	3.37 ± 0.24			3.5 ± 0.19
LEDMVFPTEIVGKRVRY [RPS7B]	1.57 ± 0.16	1.76 ± 0.088	2.5 ± 0.21	2.69 ± 0.055
TETKRLVVIRFGRKNDR [DIB1]	2.87 ± 0.11	2.24 ± 0.089	2.03 ± 0.12	2.89 ± 0.065
KSNGLAPEIPEDLYYLI [RPS13]	2.65 ± 0.081	2.83 ± 0.13	2.45 ± 0.11	2.4 ± 0.14
LSGVSNSMDMVDGMAKV [RGR1]	3.48 ± 0.11	3.29 ± 0.11	3.44 ± 0.13	3.34 ± 0.064
KPFLKKTQEYYTQYTND [CDC53]	3.02 ± 0.061	3.12 ± 0.053	3.07 ± 0.044	3.01 ± 0.046
MDFLNSMENTPKVPVSA [GAL11]	2.42 ± 0.094	2.45 ± 0.11	2.1 ± 0.13	2.37 ± 0.065
APGTEAGIVPVSANTPK [SWI1]	3.06 ± 0.053	2.94 ± 0.065	3.08 ± 0.053	3.18 ± 0.054
MVSHKTARGKAALERLK [RPL16B]	2.92 ± 0.21	2.74 ± 0.15	2.47 ± 0.21	2.21 ± 0.16
FGAKMSRTLILSILNEI [SIN4]	1.84 ± 0.063	1.42 ± 0.044	1.36 ± 0.088	1.68 ± 0.039
EIDDFNDIDDLDMELAE [SEC65]	2.68 ± 0.1	3.11 ± 0.11	2.89 ± 0.089	3.22 ± 0.12
IIVFGYPESISNELIEH [YDL088C/ASM4]	2.12 ± 0.066	2.78 ± 0.049	2.63 ± 0.058	2.75 ± 0.054
STPDQRKRVYNIKFLSK [ESC2]	3.34 ± 0.22		2.81 ± 0.08	2.93 ± 0.12
VKVQPEGKYIVDVAKDI [RPT6]	3.35 ± 0.12	3.14 ± 0.17	3.29 ± 0.038	3.16 ± 0.11

Sequence	protein stability index (doa10∆)	protein stability index (pdr5∆)	protein stability index (san1∆)	protein stability index (ubr1∆)
RSLASFEQTAFSRHAQQ [SIR4]	2.84 ± 0.059	2.73 ± 0.045	2.82 ± 0.05	2.77 ± 0.05
TVLCTPTGGKAKLSEGT [RPS27B]	3.25 ± 0.11	3.18 ± 0.079	3.15 ± 0.045	3.15 ± 0.1
VMFATNRPNTLDPALLR [RPT1]	2.81 ± 0.075	3.05 ± 0.079	2.9 ± 0.062	2.91 ± 0.073
LQLASLQQKQRDLILKK [SMC3]	2.49 ± 0.14	2.46 ± 0.16	3.1 ± 0.097	2.68 ± 0.13
TAFALGIACAGKGLQSA [RPN2]	1.25 ± 0.086	1.33 ± 0.11	1.3 ± 0.17	1.19 ± 0.076
NSKPEKSSDSNDSNPSF [YLR335W/NUP2]	2.47 ± 0.056	2.62 ± 0.064	2.25 ± 0.061	2.76 ± 0.036
SHVENLEEKLYQMQSNY [YIL149C/MLP2]	2.45 ± 0.051	2.84 ± 0.05	2.54 ± 0.05	2.86 ± 0.044
TVPEYLKTADNRDRSFQ [PGD1]	3.08 ± 0.084	3.07 ± 0.079	3.3 ± 0.038	3.07 ± 0.049
RDIFQEDEENSDVLLFQ [RGR1]	3.37 ± 0.061	3.46 ± 0.071	3.4 ± 0.039	3.23 ± 0.035
GNGKLSEHFLYLAKELN [RPN1]	3.06 ± 0.23	2.19 ± 0.18	2.42 ± 0.2	2.98 ± 0.29
KTKAMSLSIEENIPVAL [POP1]	2.92 ± 0.079	3.01 ± 0.099	3.22 ± 0.1	3.17 ± 0.092
NKYQYSLKQYAGNLITT [SRP68]	3.23 ± 0.23	1.44 ± 0.14	1.7 ± 0.11	1.54 ± 0.06
DLLHPTAASEARKHKLK [RPS27A]	2.29 ± 0.1	3.11 ± 0.068	2.53 ± 0.11	3.07 ± 0.072
GRTPNISNGTINIQKKL [SIR4]	2.37 ± 0.058	2.64 ± 0.048	2.58 ± 0.063	2.16 ± 0.041
KQTKLRKEKEKKPGKIA [SMB1]		3.36 ± 0.15	2.51 ± 0.29	
IFLHSLPVKEFQIIDTL [RPS2]	2.49 ± 0.12	2.54 ± 0.089	2.44 ± 0.073	2.49 ± 0.061
VQVRSVMDPITSKRKAE [DIS3]	2 ± 0.13	2.41 ± 0.13	2.92 ± 0.079	2.79 ± 0.12
LSEDELRELDVELIESK [SMC4]	3.33 ± 0.18	3.72 ± 0.24	3.4 ± 0.11	3.23 ± 0.073
KGKARLGTLVNQKTSAV [RPL8A]	2.65 ± 0.078	2.38 ± 0.076	3.15 ± 0.083	2.94 ± 0.057
FKLDKDTSNWELSDSWR [YGL100W/SEH1]	3.37 ± 0.068	3.45 ± 0.055	3.39 ± 0.037	3.31 ± 0.042
QHYLDTATAPRLFDKLK [QCR6]	2.96 ± 0.055	3.04 ± 0.045	2.84 ± 0.061	2.76 ± 0.091
YGYPSYSTIRQLVYKRG [RPL7A]	1.27 ± 0.061	1.52 ± 0.046	1.25 ± 0.12	1.41 ± 0.047
LSEYDAIQKKDNKDKEG [YOR098C/NUP1]	3.35 ± 0.13	3.33 ± 0.097	3.38 ± 0.11	3.38 ± 0.067
WAEHLSDEVKRRFYKNW [RPL3]	3.31 ± 0.2	2.9 ± 0.25	3.34 ± 0.14	3.37 ± 0.17
DIEEGPITSKSWEEGTR [MCD1]		2.92 ± 0.19	2.99 ± 0.15	
ILYYDVLFITPDIVGHE [BRR2]	2.29 ± 0.058	2.49 ± 0.052	2.61 ± 0.053	2.84 ± 0.057

Sequence	protein stability index (doa10∆)	protein stability index (pdr5∆)	protein stability index (san1∆)	protein stability index (ubr1∆)
QKCFKLTHRLGGDTCSS [POP1]	2.27 ± 0.059	1.85 ± 0.056	2.55 ± 0.068	2.51 ± 0.054
GTFGGDGMYSESKLSLE [FAS2]	2.91 ± 0.046	2.66 ± 0.051	3.35 ± 0.036	2.87 ± 0.04
QQQQQQQQPQPQYNMNM [PGD1]	2.33 ± 0.07	2.79 ± 0.065	2.67 ± 0.11	2.81 ± 0.16
YYNEISRDLDISSSTQC [POP6]	1.95 ± 0.091	2.56 ± 0.073	2.25 ± 0.093	2.3 ± 0.043
LRELDVELIESKINELS [SMC4]	3.37 ± 0.096	3.47 ± 0.077	3.38 ± 0.073	3.35 ± 0.047
IVTKDGVRKEFYELKRD [PRE7]	2.35 ± 0.093	2.16 ± 0.066	3.04 ± 0.082	3.16 ± 0.07
KEKLIGWYHSGPKLRAS [RPN8]	2.16 ± 0.055	2.41 ± 0.045	2.53 ± 0.051	2.63 ± 0.042
IEWAEHHRDSNFPDEDD [SKP1]	3.1 ± 0.065	3.17 ± 0.059	3.08 ± 0.046	3.33 ± 0.057
HLIPNEIKGASETPLQK [RPN4]		1.57 ± 0.12	1.55 ± 0.13	1.91 ± 0.11
DVMDELITSSARKELPI [SIR3]		2.26 ± 0.13	2.7 ± 0.27	2.42 ± 0.18
LKSPVLSKLCVPVANQF [QCR7]	2.22 ± 0.053	2.45 ± 0.065	1.92 ± 0.053	2.01 ± 0.031
YKAQADTFYMNVESVGS [RPB3]	2.75 ± 0.088	2.34 ± 0.058	2.98 ± 0.068	3.07 ± 0.079
EQVKDDGTSTEKTFLHL [RPN8]	3.28 ± 0.12	3.66 ± 0.13	3.42 ± 0.05	3.46 ± 0.082
LTSGLLYSYLIKENFFE [YJL039C/NUP192]	1.9 ± 0.1	1.74 ± 0.14	1.71 ± 0.12	1.2 ± 0.077
GMGIGFIDHHAAIRQPT [POP1]		2.94 ± 0.086		2.49 ± 0.15
NNPDMMIQPPQQGQNMS [ROX3]		2.92 ± 0.12	3.05 ± 0.12	3.14 ± 0.14
WFLDHNYIENMNEMCKK [RPN8]	3.54 ± 0.18	3.26 ± 0.12	2.93 ± 0.077	3.2 ± 0.083
DNEEASVKLDLQDDEDH [BRN1]	2.99 ± 0.1	3.45 ± 0.084	3.05 ± 0.071	3.35 ± 0.097
TTDKNTTDDKSMDTKKK [BRN1]	3.51 ± 0.1	3.51 ± 0.084	3.61 ± 0.039	3.33 ± 0.053
SVKEDVKNNQELDQEYR [SMC4]		3.53 ± 0.25		3.36 ± 0.14
KQRTKKEDKSEAIDGNG [SNF2]	3.55 ± 0.13	3.36 ± 0.075	3.17 ± 0.073	3.19 ± 0.072
IIGPNGSGKSNMMDAIS [SMC1]	3.06 ± 0.13	3.24 ± 0.089	3.03 ± 0.075	3.28 ± 0.05
ERVSPTDIEEGMRVGVD [RPT1]	3.16 ± 0.14	3.4 ± 0.14	2.83 ± 0.096	3.16 ± 0.12
SVDPQSSSTQNVFVILM [DIS3]	2.83 ± 0.16	2.43 ± 0.17	2.7 ± 0.075	2.92 ± 0.099
QTARKSTGGKAPRKQLA [HHT1]	3.18 ± 0.11	3.29 ± 0.098	3.05 ± 0.072	3.37 ± 0.086
VNEDPIFHPMIHYSWSF [YML103C/NUP188]	2.56 ± 0.056	2.46 ± 0.039	2.42 ± 0.045	2.49 ± 0.046
